Assay results from the supplement of paper PMC11246515.
± gives the standard deviation of the averaged measurements.

Test: total protein half-life in vivo (active degradation + dilution); higher = more stable protein
[1] = E. coli NCM3722 delta-clpP delta-lon delta-hslV, growth: N-lim chemostat, doubling time 6 h
[2] = E. coli NCM3722 delta-clpP, growth: N-lim chemostat, doubling time 6 h
[3] = E. coli NCM3722 delta-hslV, growth: N-lim chemostat, doubling time 6 h
[4] = E. coli NCM3722 delta-lon, growth: N-lim chemostat, doubling time 6 h
[5] = E. coli NCM3722 delta-smpB, growth: N-lim chemostat, doubling time 6 h
[6] = wild type E. coli NCM3722, growth: C-lim chemostat, doubling time 3 h
[7] = wild type E. coli NCM3722, growth: C-lim chemostat, doubling time 6 h
[8] = wild type E. coli NCM3722, growth: C-lim chemostat, doubling time 12 h
[9] = wild type E. coli NCM3722, growth: N-lim chemostat, doubling time 6 h
[10] = wild type E. coli NCM3722, growth: N-lim chemostat, doubling time 12 h
[11] = wild type E. coli NCM3722, growth: P-lim chemostat, doubling time 6 h
[12] = wild type E. coli NCM3722, growth: P-lim chemostat, doubling time 12 h

| Sequence | total protein half-life in vivo [1] | total protein half-life in vivo [2] | total protein half-life in vivo [3] | total protein half-life in vivo [4] | total protein half-life in vivo [5] | total protein half-life in vivo [6] | total protein half-life in vivo [7] | total protein half-life in vivo [8] | total protein half-life in vivo [9] | total protein half-life in vivo [10] | total protein half-life in vivo [11] | total protein half-life in vivo [12] |
| --- | --- | --- | --- | --- | --- | --- | --- | --- | --- | --- | --- | --- |
| MNKSLVAVGVIVALGVVWTGGAWYTGKKIETHLEDMVAQANAQLKLTAPESNLEVSYQNYHRGVFSSQLQLLVKPIAGKENPWIKSGQSVIFNESVDHGPFPLAQLKKLNLIPSMASIQTTLVNNEVSKPLFDMAKGETPFEINSRIGYSGDSSSDISLKPLNYEQKDEKVAFSGGEFQLNADRDGKAISLSGEAQSGRIDAVNEYNQKVQLTFNNLKTDGSSTLASFGERVGNQKLSLEKMTISVEGKELALLEGMEISGKSDLVNDGKTINSQLDYSLNSLKVQNQDLGSGKLTLKVGQIDGEAWHQFSQQYNAQTQALLAQPEIANNPELYQEKVTEAFFSALPLMLKGDPVITIAPLSWKNSQGESALNLSLFLKDPATTKEAPQTLAQEVDRSVKSLDAKLTIPVDMATEFMTQVAKLEGYQEDQAKKLAKQQVEGASAMGQMFRLTTLQDNTITTSLQYANGQITLNGQKMSLEDFVGMFAMPALNVPAVPAIPQQ | 6.64 ± 0.32 h | 6.77 ± 0.68 h | 6.24 ± 0.28 h | 6.136 ± 0.016 h | 6 ± 0.23 h | 3.14 ± 0.049 h | 5.99 ± 0.08 h | 11.8 ± 1.2 h | 6.21 ± 0.15 h | 13.15 ± 0.042 h | 5.98 ± 0.13 h | 12.9 ± 0.87 h |
| MNNRVHQGHLARKRFGQNFLNDQFVIDSIVSAINPQKGQAMVEIGPGLAALTEPVGERLDQLTVIELDRDLAARLQTHPFLGPKLTIYQQDAMTFNFGELAEKMGQPLRVFGNLPYNISTPLMFHLFSYTDAIADMHFMLQKEVVNRLVAGPNSKAYGRLSVMAQYYCNVIPVLEVPPSAFTPPPKVDSAVVRLVPHATMPHPVKDVRVLSRITTEAFNQRRKTIRNSLGNLFSVEVLTGMGIDPAMRAENISVAQYCQMANYLAENAPLQES | 5.45 ± 0.071 h | 5.39 ± 0.83 h | 5.18 ± 0.36 h | 5.84 ± 0.95 h | 5.39 ± 0.63 h | 2.972 ± 0.017 h | 5.41 ± 0.75 h | 12.5 ± 1.5 h | 5.24 ± 0.29 h | 9.91 ± 1.2 h | 5.56 ± 0.3 h | 10.6 ± 0.28 h |
| MNMKKLATLVSAVALSATVSANAMAKDTIALVVSTLNNPFFVSLKDGAQKEADKLGYNLVVLDSQNNPAKELANVQDLTVRGTKILLINPTDSDAVGNAVKMANQANIPVITLDRQATKGEVVSHIASDNVLGGKIAGDYIAKKAGEGAKVIELQGIAGTSAARERGEGFQQAVAAHKFNVLASQPADFDRIKGLNVMQNLLTAHPDVQAVFAQNDEMALGALRALQTAGKSDVMVVGFDGTPDGEKAVNDGKLAATIAQLPDQIGAKGVETADKVLKGEKVQAKYPVDLKLVVKQ | 3.56 ± 0.29 h | 5.92 ± 0.94 h | – | 6.39 ± 0.68 h | 6.26 ± 0.56 h | 3.27 ± 0.035 h | 6.14 ± 1.1 h | 9.24 ± 0.57 h | 6.13 ± 0.6 h | 10.9 ± 0.88 h | 6.05 ± 0.068 h | 11.5 ± 0.92 h |
| MATNLRGVMAALLTPFDQQQALDKASLRRLVQFNIQQGIDGLYVGGSTGEAFVQSLSEREQVLEIVAEEAKGKIKLIAHVGCVSTAESQQLAASAKRYGFDAVSAVTPFYYPFSFEEHCDHYRAIIDSADGLPMVVYNIPALSGVKLTLDQINTLVTLPGVGALKQTSGDLYQMEQIRREHPDLVLYNGYDEIFASGLLAGADGGIGSTYNIMGWRYQGIVKALKEGDIQTAQKLQTECNKVIDLLIKTGVFRGLKTVLHYMDVVSVPLCRKPFGPVDEKYLPELKALAQQLMQERG [P0A6L4] | 2.77 ± 0.23 h | 1.88 ± 0.19 h | 3.01 h | 2.66 h | 1.84 ± 0.085 h | 2.81 ± 0.23 h | 3.81 ± 0.35 h | 5.83 ± 1.4 h | 2.28 h | 2.1 ± 0.3 h | 4.43 ± 0.18 h | 8.79 h |
| MTNLPKFSTALLHPRYWLTWLGIGVLWLVVQLPYPVIYRLGCGLGKLALRFMKRRAKIVHRNLELCFPEMSEQERRKMVVKNFESVGMGLMETGMAWFWPDRRIARWTEVIGMEHIRDVQAQKRGILLVGIHFLTLELGARQFGMQEPGIGVYRPNDNPLIDWLQTWGRLRSNKSMLDRKDLKGMIKALKKGEVVWYAPDHDYGPRSSVFVPLFAVEQAATTTGTWMLARMSGACLVPFVPRRKPDGKGYQLIMLPPECSPPLDDAETTAAWMNKVVEKCIMMAPEQYMWLHRRFKTRPEGVPSRY [P0ACV0] | 6.85 h | 5.84 h | 6.63 h | – | 5.81 h | – | 7.93 h | – | – | – | – | – |
| MAEETIFSKIIRREIPSDIVYQDDLVTAFRDISPQAPTHILIIPNILIPTVNDVSAEHEQALGRMITVAAKIAEQEGIAEDGYRLIMNTNRHGGQEVYHIHMHLLGGRPLGPMLAHKGL [P0ACE7] | – | 5.01 ± 0.59 h | 4.88 ± 0.38 h | – | 4.71 ± 0.36 h | 3.32 ± 0.21 h | 5.24 ± 0.32 h | 8.75 ± 1.9 h | 4.31 ± 0.051 h | 7.64 ± 0.66 h | 5.65 ± 0.32 h | 12 ± 1.3 h |
| MSDTTELVDLAVIFPDLEIELKYACADNITGKAIYQQARCLLHKDAITALAKSISIAQLSGLQLVIYDAYRPQQAQAMLWQACPDPQYVVDVTVGSNHSRGTAIDLTLRDEHGNILDMGAGFDEMHERSHAYHPSVPPAAQRNRLLLNAIMTGGGFVGISSEWWHFELPQAASYPLLADQFSCFISPGTQHVS | 5.51 ± 0.24 h | 1.76 h | 2.69 ± 0.14 h | 3.64 ± 0.33 h | 1.89 ± 0.17 h | 0.884 h | 1.97 ± 0.47 h | – | 2.72 ± 0.22 h | 4.71 ± 0.84 h | – | – |
| MERLKRMSVFAKVVEFGSFTAAARQLQMSVSSISQTVSKLEDELQVKLLNRSTRSIGLTEAGRIYYQGCRRMLHEVQDVHEQLYAFNNTPIGTLRIGCSSTMAQNVLAGLTAKMLKEYPGLSVNLVTGIPAPDLIADGLDVVIRVGALQDSSLFSRRLGAMPMVVCAAKSYLTQYGIPEKPADLSSHSWLEYSVRPDNEFELIAPEGISTRLIPQGRFVTNDPMTLVRWLTAGAGIAYVPLMWVINEINRGELEILLPRYQSDPRPVYALYTEKDKLPLKVQVVINSLTDYFVEVGKLFQEMHGRGKEK | 5.96 ± 0.4 h | 5.9 ± 0.28 h | 6.51 ± 0.75 h | 6.27 ± 0.31 h | 6.03 ± 0.19 h | 3.47 ± 0.21 h | – | 11 ± 0.14 h | 5.69 ± 0.44 h | 13.9 ± 0.74 h | 5.75 ± 0.69 h | 12.7 ± 0.32 h |
| MNEQYSALRSNVSMLGKVLGETIKDALGEHILERVETIRKLSKSSRAGNDANRQELLTTLQNLSNDELLPVARAFSQFLNLANTAEQYHSISPKGEAASNPEVIARTLRKLKNQPELSEDTIKKAVESLSLELVLTAHPTEITRRTLIHKMVEVNACLKQLDNKDIADYEHNQLMRRLRQLIAQSWHTDEIRKLRPSPVDEAKWGFAVVENSLWQGVPNYLRELNEQLEENLGYKLPVEFVPVRFTSWMGGDRDGNPNVTADITRHVLLLSRWKATDLFLKDIQVLVSELSMVEATPELLALVGEEGAAEPYRYLMKNLRSRLMATQAWLEARLKGEELPKPEGLLTQNEELWEPLYACYQSLQACGMGIIANGDLLDTLRRVKCFGVPLVRIDIRQESTRHTEALGELTRYLGIGDYESWSEADKQAFLIRELNSKRPLLPRNWQPSAETREVLDTCQVIAEAPQGSIAAYVISMAKTPSDVLAVHLLLKEAGIGFAMPVAPLFETLDDLNNANDVMTQLLNIDWYRGLIQGKQMVMIGYSDSAKDAGVMAASWAQYQAQDALIKTCEKAGIELTLFHGRGGSIGRGGAPAHAALLSQPPGSLKGGLRVTEQGEMIRFKYGLPEITVSSLSLYTGAILEANLLPPPEPKESWRRIMDELSVISCDVYRGYVRENKDFVPYFRSATPEQELGKLPLGSRPAKRRPTGGVESLRAIPWIFAWTQNRLMLPAWLGAGTALQKVVEDGKQSELEAMCRDWPFFSTRLGMLEMVFAKADLWLAEYYDQRLVDKALWPLGKELRNLQEEDIKVVLAIANDSHLMADLPWIAESIQLRNIYTDPLNVLQAELLHRSRQAEKEGQEPDPRVEQALMVTIAGIAAGMRNTG | 5.93 ± 0.19 h | 5.73 ± 0.32 h | 5.54 ± 0.18 h | 5.364 ± 0.041 h | 5.04 ± 0.057 h | 2.97 ± 0.16 h | 5.78 ± 0.22 h | 10.98 ± 0.089 h | 5.22 ± 0.11 h | 10.6 ± 0.79 h | 5.97 ± 0.078 h | 11.8 ± 0.8 h |
| MKGSYKSRWVIVIVVVIAAIAAFWFWQGRNDSRSAAPGATKQAQQSPAGGRRGMRSGPLAPVQAATAVEQAVPRYLTGLGTITAANTVTVRSRVDGQLIALHFQEGQQVKAGDLLAEIDPSQFKVALAQAQGQLAKDKATLANARRDLARYQQLAKTNLVSRQELDAQQALVSETEGTIKADEASVASAQLQLDWSRITAPVDGRVGLKQVDVGNQISSGDTTGIVVITQTHPIDLVFTLPESDIATVVQAQKAGKPLVVEAWDRTNSKKLSEGTLLSLDNQIDATTGTIKVKARFNNQDDALFPNQFVNARMLVDTEQNAVVIPTAALQMGNEGHFVWVLNSENKVSKHLVTPGIQDSQKVVIRAGISAGDRVVTDGIDRLTEGAKVEVVEAQSATTPEEKATSREYAKKGARS | 6.33 ± 0.75 h | – | – | 6.148 ± 0.046 h | 6.07 ± 0.51 h | – | 6.25 ± 0.65 h | 12.3 ± 0.27 h | 6.1255 ± 0.0044 h | 13.2 ± 0.32 h | 5.8716 ± 0.00037 h | 10.5 ± 0.89 h |
| MFDIGFSELLLVFIIGLVVLGPQRLPVAVKTVAGWIRALRSLATTVQNELTQELKLQEFQDSLKKVEKASLTNLTPELKASMDELRQAAESMKRSYVANDPEKASDEAHTIHNPVVKDNEAAHEGVTPAAAQTQASSPEQKPETTPEPVVKPAADAEPKTAAPSPSSSDKP | 4.29 ± 0.055 h | 5.27 ± 1.5 h | 5.04 ± 0.61 h | 3.92 ± 0.51 h | 4.49 ± 0.26 h | 2.57 ± 0.12 h | 4.41 ± 0.55 h | 7 ± 1.1 h | 4.65 ± 0.15 h | 8.87 ± 1.3 h | 4.27 ± 0.49 h | 7.92 ± 0.28 h |
